Test results: paper PMC6238398, “The crystal structure of Staufen1 in complex with a physiological RNA sheds light on substrate selectivity” (Life Science Alliance, 2018)

Key:
GST-hStau1 dsRBD4 = GST-hStau1 dsRBD4 (Homo sapiens, UniProt O95793 284-358); assay: fluorescence anisotropy; FA: 10 nM 5'-FAM RNA, 20 mM Hepes pH 7.5, 150 mM KCl, RT (19-21 C); EMSA: 1 uM RNA, same buffer, 45 min on ice; conditions: protein: recombinant; tags: N-terminal GST; label: 5'-6-FAM on sense strand; blunt, two G-U wobbles
GST-hStau1 dsRBD3 = GST-hStau1 dsRBD3 (Homo sapiens, UniProt O95793 182-255); assay: as above; conditions: protein: recombinant; tags: N-terminal GST; label: 5'-6-FAM on sense strand; blunt, two G-U wobbles
[1] = target: hStau1 base-contact mutant (Homo sapiens, UniProt O95793 182-360, S187A;P211A;Q293A); assay: as above; conditions: protein: recombinant, blunt
[2] = target: hStau1 dsRBD4 backbone mutant (Homo sapiens, UniProt O95793 182-360, R315A;R317A;K337E;K338A;K341A); assay: as above; conditions: protein: recombinant; label: 5'-6-FAM on sense strand; blunt, two G-U wobbles
[3] = target: hStau1 dsRBD3 backbone mutant (Homo sapiens, UniProt O95793 182-360, H212A;K214A;K234E;K235A;K238A); assay: as above; conditions: protein: recombinant; label: 5'-6-FAM on sense strand; blunt, two G-U wobbles
[4] = target: hStau1 dsRBD3-4 interface mutant (Homo sapiens, UniProt O95793 182-360, N197A;R342A); assay: fluorescence anisotropy; no effect on affinity vs wt; FA: 10 nM 5'-FAM RNA, 20 mM Hepes pH 7.5, 150 mM KCl, RT (19-21 C); EMSA: 1 uM RNA, same buffer, 45 min on ice; conditions: protein: recombinant; label: 5'-6-FAM on sense strand; blunt, two G-U wobbles
[5] = target: hStau1 dsRBD3-4 linker charge mutant (Homo sapiens, UniProt O95793 182-360, K266A;K267E;K268A;K270A); assay: fluorescence anisotropy; FA: 10 nM 5'-FAM RNA, 20 mM Hepes pH 7.5, 150 mM KCl, RT (19-21 C); EMSA: 1 uM RNA, same buffer, 45 min on ice; conditions: protein: recombinant; label: 5'-6-FAM on sense strand; blunt, two G-U wobbles
[6] = target: hStau1 dsRBD3-4 short linker (Homo sapiens, UniProt O95793 182-253+=GSSGSGSS+284-360, internal_change); assay: as above; conditions: protein: recombinant; label: 5'-6-FAM on sense strand; blunt, two G-U wobbles
[7] = target: hStau1 deltaC (SSM and dsRBD5 removed) (Homo sapiens, UniProt O95793 1-360); assay: as above; conditions: protein: recombinant; label: 5'-6-FAM on sense strand; blunt, two G-U wobbles
[8] = target: hStau1 deltaN (dsRBD2 removed) (Homo sapiens, UniProt O95793 182-577); assay: as above; conditions: protein: recombinant; label: 5'-6-FAM on sense strand; blunt, two G-U wobbles
hStau1 dsRBD3-4 = hStau1 dsRBD3-4 (Homo sapiens, UniProt O95793 182-360); assay: as above; conditions: protein: recombinant; tags: untagged; chain copies: 2; label: 5'-6-FAM on sense strand; blunt, two G-U wobbles
hStau1 FL [9] = target: T1, hStau1 FL (Homo sapiens, UniProt O95793 1-577); assay: as above; conditions: protein: recombinant, tags: tag removed or His/GST not specified, chain copies: 2
GST-hStau1 dsRBD3-4 = GST-hStau1 dsRBD3-4 (Homo sapiens, UniProt O95793 182-360); assay: as above; conditions: protein: recombinant; tags: N-terminal GST; label: 5'-6-FAM on sense strand; blunt, two G-U wobbles
[10] = target: the molecule itself; assay: SEC + SEC-MALS; apo proteins on Superdex 200 Increase 10/300 GL with MALLS detector; 20 mM Tris-HCl pH 7.5, 150 mM KCl, RT; 200 ug FL, 350 ug hStau1 182-577 injected
[11] = target: T2, dStau dsRBD3 backbone mutant (Drosophila melanogaster, UniProt P25159 570-786, H606A;K608A;K628E;K629A); assay: fluorescence anisotropy; FA: 10 nM 5'-FAM RNA, 20 mM Hepes pH 7.5, 150 mM KCl, RT (19-21 C); EMSA: 1 uM RNA, same buffer, 45 min on ice; conditions: protein: recombinant; label: 5'-6-FAM; hairpin
T2 sequence: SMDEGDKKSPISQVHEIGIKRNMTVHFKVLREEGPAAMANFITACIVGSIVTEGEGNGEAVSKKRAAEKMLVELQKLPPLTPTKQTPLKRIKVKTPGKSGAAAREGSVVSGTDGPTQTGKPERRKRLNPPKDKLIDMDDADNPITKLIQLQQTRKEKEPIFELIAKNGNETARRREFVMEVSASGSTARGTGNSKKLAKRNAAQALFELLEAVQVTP

[12] = target: T3, dStau dsRBD4 backbone mutant (Drosophila melanogaster, UniProt P25159 570-786, R742A;R744A;K764E;K765A;K768A); assay: as above; conditions: protein: recombinant; label: 5'-6-FAM; hairpin
T3 sequence: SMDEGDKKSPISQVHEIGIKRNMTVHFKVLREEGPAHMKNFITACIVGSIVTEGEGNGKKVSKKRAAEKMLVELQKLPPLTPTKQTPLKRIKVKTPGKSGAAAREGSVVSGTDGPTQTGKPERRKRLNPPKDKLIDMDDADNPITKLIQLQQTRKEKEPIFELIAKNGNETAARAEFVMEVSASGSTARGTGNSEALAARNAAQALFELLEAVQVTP

dStau S581A Q718A = target: T4, dStau S581A Q718A (Drosophila melanogaster, UniProt P25159 570-786, S581A;Q718A); assay: as above; conditions: protein: recombinant; label: 5'-6-FAM; hairpin
T4 sequence: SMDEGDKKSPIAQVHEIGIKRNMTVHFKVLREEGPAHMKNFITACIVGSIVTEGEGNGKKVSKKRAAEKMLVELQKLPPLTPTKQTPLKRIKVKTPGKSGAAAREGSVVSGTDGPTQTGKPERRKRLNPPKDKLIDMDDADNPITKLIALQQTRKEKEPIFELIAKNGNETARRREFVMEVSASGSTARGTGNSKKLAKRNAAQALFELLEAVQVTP

hStau1 FL [13] = target: T1, hStau1 FL; assay: as above; conditions: protein: recombinant; tags: tag removed or His/GST not specified; chain copies: 2; label: 5'-6-FAM; blunt

hStau1 base-contact mutant, sequence (O95793 182-360 S187A/P211A/Q293A): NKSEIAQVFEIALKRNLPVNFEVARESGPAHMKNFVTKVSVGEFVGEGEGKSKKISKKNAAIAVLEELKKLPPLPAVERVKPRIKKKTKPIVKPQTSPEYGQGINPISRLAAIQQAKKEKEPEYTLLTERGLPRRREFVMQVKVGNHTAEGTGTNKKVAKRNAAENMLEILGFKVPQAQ
hStau1 dsRBD3-4 interface mutant, sequence (O95793 182-360 N197A/R342A): as the sequence (O95793 182-360 S187A/P211A/Q293A) above, with A6S, N16A, A30P, A112Q, R161A counted along it

B1: ARF1 SBS (dsRNA)
RNA 1: UGAGUGCCAGAAGCUGCCUC
RNA 2: GAGGCAGUUUCUGGUACUCA
**Q.** B1 was tested. Which binding signal (GST-hStau1 dsRBD4) did it give?
**A.** ~1000 fold reduction vs tandem dsRBD3-4

**Q.** And the binding signal (GST-hStau1 dsRBD3)?
**A.** ~10 fold reduction vs tandem dsRBD3-4

**Q.** What about the binding signal ([1]; label: 5'-6-FAM on sense strand, two G-U wobbles) of the same binder?
**A.** ~3 fold reduction vs wt

**Q.** And the binding signal [2]?
**A.** ~4.5 fold reduction vs wt

**Q.** What about the binding signal [3] of the same binder?
**A.** ~8 fold reduction vs wt

**Q.** Does B1 bind [4]?
**A.** binds

**Q.** And the binding signal [5]?
**A.** ~3 fold reduction vs wt

**Q.** What about the binding signal [6] of the same binder?
**A.** ~8 fold reduction vs wt

**Q.** And the Kd [7]?
**A.** 10 ± 2 nM

**Q.** What about the Kd [8] of the same binder?
**A.** 9 ± 3 nM

**Q.** And the Kd (hStau1 dsRBD3-4)?
**A.** 14 ± 4 nM

**Q.** What about the Kd (hStau1 FL [9]; label: 5'-6-FAM on sense strand, blunt, two G-U wobbles) of the same binder?
**A.** 6 ± 1 nM

**Q.** What about the Kd (GST-hStau1 dsRBD3-4) of the same binder?
**A.** 9 ± 2 nM

B2: human Staufen1 full-length (natural protein, UniProt O95793 1-577, looked up)
chain: MSQVQVQVQNPSAALSGSQILNKNQSLLSQPLMSIPSTTSSLPSENAGRPIQNSALPSASITSTSAAAESITPTVELNALCMKLGKKPMYKPVDPYSRMQSTYNYNMRGGAYPPRYFYPFPVPPLLYQVELSVGGQQFNGKGKTRQAAKHDAAAKALRILQNEPLPERLEVNGRESEEENLNKSEISQVFEIALKRNLPVNFEVARESGPPHMKNFVTKVSVGEFVGEGEGKSKKISKKNAAIAVLEELKKLPPLPAVERVKPRIKKKTKPIVKPQTSPEYGQGINPISRLAQIQQAKKEKEPEYTLLTERGLPRRREFVMQVKVGNHTAEGTGTNKKVAKRNAAENMLEILGFKVPQAQPTKPALKSEEKTPIKKPGDGRKVTFFEPGSGDENGTSNKEDEFRMPYLSHQQLPAGILPMVPEVAQAVGVSQGHHTKDFTRAAPNPAKATVTAMIARELLYGGTSPTAETILKNNISSGHVPHGPLTRPSEQLDYLSRVQGFQVEYKDFPKNNKNEFVSLINCSSQPPLISHGIGKDVESCHDMAALNILKLLSELDQQSTEMPRTGNGPMSVCGRC
notes: human Staufen1 (hStau1), GenBank AAD17531.1, codon optimized; full-length protein; the truncation 182-577 implies a length of 577 aa; Constructs carried either an N-terminal GST tag or a His tag; The His tag was removed by TEV; the GST tag was either kept (elution with glutathione) or cleaved by TEV; also called hStau1 FL; hStau1
**Q.** How did the “stoichiometry N” value [10] turn out when B2 was run?
**A.** 2

B3: bcd III (structured_RNA)
RNA: CGCUAUUCGCCUUAGAUGUAUCUGGGUGGCUGCUCCACUAAAGCCCGGGAAUAUGCAACCAGUUACAUUUGAGGCCAUUUGGGCUUAAGCG
**Q.** Which results are given for B3?
**A.** binding signal [11]: ~10 fold reduction vs wt (almost); binding signal [12]: < 3 fold reduction vs wt; binding signal (dStau S581A Q718A): ~3.5 fold reduction vs wt

B4: dsAU (dsRNA)
RNA 1: UAUUAUAUAAAUUAUAAAAU
RNA 2: AUUUUAUAAUUUAUAUAAUA
**Q.** B4 was tested. Which binding signal (hStau1 FL [13]) did it give?
**A.** ~4 fold reduction vs ARF1 SBS

**Q.** And the binding signal ([1]; label: 5'-6-FAM)?
**A.** ~1.5 fold reduction vs wt on dsAU

**Q.** Which Kd (hStau1 FL [9]; label: 5'-6-FAM, single strand) does the source give for UGAGUGCCAGAAGCUGCCUC (ssRNA) [ssARF1 (sense strand)] here?
**A.** 96 ± 27 nM

B5: hStau1 aa 182-577 (N-terminal deletion removing dsRBD2) (domain or fragment, human, UniProt O95793 182-577, looked up)
chain: NKSEISQVFEIALKRNLPVNFEVARESGPPHMKNFVTKVSVGEFVGEGEGKSKKISKKNAAIAVLEELKKLPPLPAVERVKPRIKKKTKPIVKPQTSPEYGQGINPISRLAQIQQAKKEKEPEYTLLTERGLPRRREFVMQVKVGNHTAEGTGTNKKVAKRNAAENMLEILGFKVPQAQPTKPALKSEEKTPIKKPGDGRKVTFFEPGSGDENGTSNKEDEFRMPYLSHQQLPAGILPMVPEVAQAVGVSQGHHTKDFTRAAPNPAKATVTAMIARELLYGGTSPTAETILKNNISSGHVPHGPLTRPSEQLDYLSRVQGFQVEYKDFPKNNKNEFVSLINCSSQPPLISHGIGKDVESCHDMAALNILKLLSELDQQSTEMPRTGNGPMSVCGRC
notes: human Staufen1 (hStau1), GenBank AAD17531.1, aa 182-577 (dsRBD3, dsRBD4, TBD, SSM, dsRBD5); GST was kept or cleaved; also called hStau1^182-577
**Q.** How did the “stoichiometry N” value [10] turn out when B5 was run?
**A.** 2
